Measurements: US20230382948A1, “DELIVERY OF ENDOTHELIAL CELL-LADEN MICROGEL ELICITS ANGIOGENESIS IN SELF-ASSEMBLING ULTRASHORT PEPTIDE HYDROGELS” (KING ABDULLAH UNIVERSITY OF SCIENCE AND TECHNOLOGY, priority 2020, published 2023)
Where no end group is shown, it is not given here. [ ]: non-standard residue; d: D form. Cha = N[C@@H](CC1CCCCC1)C(=O)O

How the values were obtained:
[1] = Rheological characterization of SUP bulk hydrogels; type: physicochemical
Description: The mechanical stiffness of the peptide hydrogels was analyzed using a TA Ares-G2 Rheometer equipped with parallel-plate geometries of 8 mm diameter at room temperature. The sample gap between the upper and the lower geometries was set at 1.8 mm. The hydrogels were prepared from 135 μL of peptide solution that was mixed with 15 μL of 10×PBS in an 8 mm i.d. poly(methyl methacrylate) (PMMA) casting ring and left for 1 day before measurement. The rings were kept inside Petri dishes at room temperature with water surrounding them and tightly sealed to avoid dehydration. To control the accuracy of the measurements, six replicates for each peptide hydrogel were prepared. The stiffness was analyzed through three successive tests, which were time sweep, frequency sweep, and amplitude sweep. Time sweep was first performed for 5 min with an angular frequency and a strain of 1 rad/s and 0.1%, respectively. A frequency sweep was subsequently performed on the sample for a range of angular frequency of 0.1-100 rad/s with the same strain of 0.1%. The tests were completed with the amplitude sweep by applying a gradual increase of strain […] at 1 rad/s angular frequency.

[2] = Peptide gelation study (vial inversion method); type: physicochemical; conditions: 1 mg/ml and 10 mg/ml, compared to IIZK and IZZK, FIG. 57
Description: The preweighed (as per the required final concentration) peptide powder was dissolved in 0.9 mL of Milli-Q® water in a glass vial. The solution was vortexed for 5-10 s to obtain a clear and homogeneous solution. To this peptide solution, 0.1 mL of PBS buffer (10×, w/o Ca^2+ and Mg^2+) was added. To ensure a homogeneous distribution of buffer in the solution, the glass vial was further vortexed for 2-3 s. The glass vial was kept undisturbed on the bench, and hydrogel formation was observed using the vial inversion method, as shown in FIG. 9. The pH of the solutions of IVFK (SEQ ID NO. 1) and IVZK (SEQ ID NO. 2) was 5.57 and 5.48 at a 5 mg/mL concentration, respectively. After the addition of PBS, the pH changed to 7.7 and 7.6 for IVFK (SEQ ID NO. 1) and IVZK (SEQ ID NO. 2), respectively. The pH of the Milli-Q® water and phosphate buffer used was 6.7 and 7.4, respectively.

| Substance | Loss modulus (G″) ([1]; 1 mg/mL) | Storage Modulus (G′, kPa) ([1]; 1 mg/mL) | tan δ (G″/G′) ([1]; 1 mg/mL) | Loss modulus (G″) ([1]; 2 mg/mL) | Storage Modulus (G′, kPa) ([1]; 2 mg/mL) | tan δ (G″/G′) ([1]; 2 mg/mL) | Loss modulus (G″) ([1]; 5 mg/mL) | Storage Modulus (G′, kPa) ([1]; 5 mg/mL) | tan δ (G″/G′) ([1]; 5 mg/mL) | Loss modulus (G″) ([1]; 8 mg/mL) | Storage Modulus (G′, kPa) ([1]; 8 mg/mL) | tan δ (G″/G′) ([1]; 8 mg/mL) | Loss modulus (G″) ([1]; 10 mg/mL) | Storage Modulus (G′, kPa) ([1]; 10 mg/mL) | tan δ (G″/G′) ([1]; 10 mg/mL) | Loss modulus (G″) ([1]; 13 mg/mL) | Storage Modulus (G′, kPa) ([1]; 13 mg/mL) | tan δ (G″/G′) ([1]; 13 mg/mL) | Self-assembly rate (time to form a gel) [2] |
| --- | --- | --- | --- | --- | --- | --- | --- | --- | --- | --- | --- | --- | --- | --- | --- | --- | --- | --- | --- |
| IIZK: self-assembling ultrashort tetrapeptide, Cha-containing, one-letter sequence IIZK (II[Cha]K) | 0.88 ± 0.04 kPa | 6.52 ± 0.18 kPa | 0.13 | 2.02 ± 0.09 kPa | 16.82 ± 0.72 kPa | 0.12 | 7.08 ± 0.59 kPa | 64.74 ± 4.89 kPa | 0.11 | 10.91 ± 0.44 kPa | 89.40 ± 1.86 kPa | 0.12 | 15.54 ± 0.68 kPa | 134.04 ± 5.99 kPa | 0.12 | 37.76 ± 2.38 kPa | 271.34 ± 35.09 kPa | 0.14 | – |
| IIFK: self-assembling ultrashort tetrapeptide, one-letter sequence IIFK | 0.13 ± 0.04 kPa | 1.25 ± 0.86 kPa | 0.10 | 1.31 ± 0.12 kPa | 14.45 ± 1.37 kPa | 0.09 | 2.39 ± 0.11 kPa | 27.26 ± 1.30 kPa | 0.09 | 5.00 ± 0.31 kPa | 49.74 ± 5.02 kPa | 0.10 | 9.04 ± 0.56 kPa | 94.18 ± 7.12 kPa | 0.10 | 8.90 ± 0.36 kPa | 108.21 ± 5.02 kPa | 0.08 | slower than the Cha-containing peptides |
